Molecular target: mouse GFRAL (endogenous, wild type mice against Gfral-/- mice) (mouse) (UniProt Q6SJE0)
Test: cell-based or functional assay

Sequence of mouse GFRAL (endogenous, wild type mice against Gfral-/- mice) (mouse) (Q6SJE0 20-393): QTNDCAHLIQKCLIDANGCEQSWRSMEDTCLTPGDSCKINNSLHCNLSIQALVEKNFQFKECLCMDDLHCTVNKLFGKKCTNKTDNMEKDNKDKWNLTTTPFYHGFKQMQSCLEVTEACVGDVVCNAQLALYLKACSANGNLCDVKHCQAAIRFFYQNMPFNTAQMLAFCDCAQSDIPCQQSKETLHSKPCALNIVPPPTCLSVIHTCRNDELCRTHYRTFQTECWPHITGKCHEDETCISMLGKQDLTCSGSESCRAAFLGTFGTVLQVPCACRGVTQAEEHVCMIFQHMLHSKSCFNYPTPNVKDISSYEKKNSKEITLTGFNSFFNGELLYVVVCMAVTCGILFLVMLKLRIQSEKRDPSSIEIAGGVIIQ

- decrease in 12-hour food intake after a single subcutaneous administration of 16 nmol/kg: > 40%
Substance: recombinant human GDF15 (generated by Janssen BioTherapeutics) (from UniProt Q99988 197-308) (ligand)

Reference: patent US20190234935A1
